Laboratory results: article PMC10027727, “Structure and dynamics of the Arabidopsis O-fucosyltransferase SPINDLY” (Nature Communications, 2023)

T1: Myc-spy Δ216 (deletion of residues 1-216, the N-terminal peptide and TPRs 1-5) (Arabidopsis thaliana, UniProt Q96301 217-914)
T1 construct: source: N. benthamiana, transient expression by agroinfiltration, in protein extract
T1 sequence (looked up): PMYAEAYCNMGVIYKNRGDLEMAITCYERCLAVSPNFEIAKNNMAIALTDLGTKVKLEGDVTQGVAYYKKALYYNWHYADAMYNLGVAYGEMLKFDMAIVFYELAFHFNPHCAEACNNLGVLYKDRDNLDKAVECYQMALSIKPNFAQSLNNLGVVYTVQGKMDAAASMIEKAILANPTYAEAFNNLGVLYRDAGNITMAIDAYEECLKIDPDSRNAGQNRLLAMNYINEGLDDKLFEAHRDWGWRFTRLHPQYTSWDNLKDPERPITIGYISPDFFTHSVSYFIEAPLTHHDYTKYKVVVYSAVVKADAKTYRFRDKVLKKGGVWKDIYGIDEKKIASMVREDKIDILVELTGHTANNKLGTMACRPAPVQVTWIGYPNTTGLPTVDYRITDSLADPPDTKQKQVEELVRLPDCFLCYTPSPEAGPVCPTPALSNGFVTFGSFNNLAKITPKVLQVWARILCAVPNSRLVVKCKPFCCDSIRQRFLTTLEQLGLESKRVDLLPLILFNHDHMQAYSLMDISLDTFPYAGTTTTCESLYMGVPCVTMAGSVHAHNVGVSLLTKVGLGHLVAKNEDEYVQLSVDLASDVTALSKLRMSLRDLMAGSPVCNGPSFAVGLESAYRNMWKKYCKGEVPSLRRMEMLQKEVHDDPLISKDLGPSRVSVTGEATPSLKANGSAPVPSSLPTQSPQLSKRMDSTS

B1: Recombinant full-length Arabidopsis thaliana SPINDLY (SPY-WT-TEV-His10-Strep) (enzyme, UniProt Q96301 1-914, looked up)
chain: MVGLEDDTERERSPVVENGFSNGSRSSSSSAGVLSPSRKVTQGNDTLSYANILRARNKFADALALYEAMLEKDSKNVEAHIGKGICLQTQNKGNLAFDCFSEAIRLDPHNACALTHCGILHKEEGRLVEAAESYQKALMADASYKPAAECLAIVLTDLGTSLKLAGNTQEGIQKYYEALKIDPHYAPAYYNLGVVYSEMMQYDNALSCYEKAALERPMYAEAYCNMGVIYKNRGDLEMAITCYERCLAVSPNFEIAKNNMAIALTDLGTKVKLEGDVTQGVAYYKKALYYNWHYADAMYNLGVAYGEMLKFDMAIVFYELAFHFNPHCAEACNNLGVLYKDRDNLDKAVECYQMALSIKPNFAQSLNNLGVVYTVQGKMDAAASMIEKAILANPTYAEAFNNLGVLYRDAGNITMAIDAYEECLKIDPDSRNAGQNRLLAMNYINEGLDDKLFEAHRDWGWRFTRLHPQYTSWDNLKDPERPITIGYISPDFFTHSVSYFIEAPLTHHDYTKYKVVVYSAVVKADAKTYRFRDKVLKKGGVWKDIYGIDEKKIASMVREDKIDILVELTGHTANNKLGTMACRPAPVQVTWIGYPNTTGLPTVDYRITDSLADPPDTKQKQVEELVRLPDCFLCYTPSPEAGPVCPTPALSNGFVTFGSFNNLAKITPKVLQVWARILCAVPNSRLVVKCKPFCCDSIRQRFLTTLEQLGLESKRVDLLPLILFNHDHMQAYSLMDISLDTFPYAGTTTTCESLYMGVPCVTMAGSVHAHNVGVSLLTKVGLGHLVAKNEDEYVQLSVDLASDVTALSKLRMSLRDLMAGSPVCNGPSFAVGLESAYRNMWKKYCKGEVPSLRRMEMLQKEVHDDPLISKDLGPSRVSVTGEATPSLKANGSAPVPSSLPTQSPQLSKRMDSTS
modifications: fully auto-O-fucosylated (sites not mapped for the insect-cell protein)
notes: SPINDLY (SPY), Arabidopsis thaliana, full length (101.4 kDa), UniProt Q96301; The tag end is read from the construct name SPY-WT-TEV-His10-Strep; A TEV site lies between SPY and the tags; no cleavage is described; also called WT SPY; apo SPY; source: Trichoplusia ni (High Five) insect cells, baculovirus, purified (Talon, Strep-Tactin, SEC)
B2: FLAG-RGA (35S:FLAG-RGA, pEG100-3xFR; contains a 6xHis-3xFLAG tag) (natural protein, Arabidopsis, UniProt Q9SLH3 1-587, looked up)
chain: MKRDHHQFQGRLSNHGTSSSSSSISKDKMMMVKKEEDGGGNMDDELLAVLGYKVRSSEMAEVALKLEQLETMMSNVQEDGLSHLATDTVHYNPSELYSWLDNMLSELNPPPLPASSNGLDPVLPSPEICGFPASDYDLKVIPGNAIYQFPAIDSSSSSNNQNKRLKSCSSPDSMVTSTSTGTQIGGVIGTTVTTTTTTTTAAGESTRSVILVDSQENGVRLVHALMACAEAIQQNNLTLAEALVKQIGCLAVSQAGAMRKVATYFAEALARRIYRLSPPQNQIDHCLSDTLQMHFYETCPYLKFAHFTANQAILEAFEGKKRVHVIDFSMNQGLQWPALMQALALREGGPPTFRLTGIGPPAPDNSDHLHEVGCKLAQLAEAIHVEFEYRGFVANSLADLDASMLELRPSDTEAVAVNSVFELHKLLGRPGGIEKVLGVVKQIKPVIFTVVEQESNHNGPVFLDRFTESLHYYSTLFDSLEGVPNSQDKVMSEVYLGKQICNLVACEGPDRVERHETLSQWGNRFGSSGLAPAHLGSNAFKQASMLLSVFNSGQGYRVEESNGCLMLGWHTRPLITTSAWKLSTAAY
notes: RGA, an Arabidopsis DELLA protein; called the full-length RGA substrate in planta; RGA is O-fucosylated by the co-expressed SPY to differing degrees; also called His-FLAG-RGA; source: N. benthamiana, transient expression by agroinfiltration, in protein extract

How the values were obtained:
[1] = molecular target: the molecule itself; experiment: cryo-EM 2D class averages; apo SPY, flash-frozen solution; tetramer formed by side-by-side stacking of two SPY dimers
[2] = molecular target: the molecule itself; experiment: cryo-EM structure; apo SPY, ~0.8 mg/mL, 25 mM HEPES pH 7.5, 150 mM NaCl, 2 mM DTT; three conformations of the dimer at 3.6 to 3.9 Å
[3] = molecular target: T1, Myc-spy Δ216 (deletion of residues …); experiment: co-IP; FLAG-RGA co-expressed with Myc-SPY, Myc-spy mutants or Myc-GUS in N. benthamiana; IP with anti-cMyc agarose, blots with αMyc and αFLAG; co-IP'ed FLAG-RGA normalised to the IP'ed Myc protein, WT SPY set as 1; conditions: partners not purified

Binder	stoichiometry N [1]	stoichiometry N [2]	fold change of co-IP'ed FLAG-RGA against WT SPY [3] [fold]
B1	4	2	
B2			6.3
